± gives the standard deviation of the averaged measurements.
Assay: total protein half-life in vivo (active degradation + dilution); higher = more stable protein
[1] = E. coli NCM3722 delta-clpP delta-lon delta-hslV, growth: N-lim chemostat, doubling time 6 h
[2] = E. coli NCM3722 delta-clpP, growth: N-lim chemostat, doubling time 6 h
[3] = E. coli NCM3722 delta-hslV, growth: N-lim chemostat, doubling time 6 h
[4] = E. coli NCM3722 delta-lon, growth: N-lim chemostat, doubling time 6 h
[5] = E. coli NCM3722 delta-smpB, growth: N-lim chemostat, doubling time 6 h
[6] = wild type E. coli NCM3722, growth: C-lim chemostat, doubling time 3 h
[7] = wild type E. coli NCM3722, growth: C-lim chemostat, doubling time 6 h
[8] = wild type E. coli NCM3722, growth: C-lim chemostat, doubling time 12 h
[9] = wild type E. coli NCM3722, growth: N-lim chemostat, doubling time 6 h
[10] = wild type E. coli NCM3722, growth: N-lim chemostat, doubling time 12 h
[11] = wild type E. coli NCM3722, growth: P-lim chemostat, doubling time 6 h
[12] = wild type E. coli NCM3722, growth: P-lim chemostat, doubling time 12 h

Row | Sequence | total protein half-life in vivo [1] | total protein half-life in vivo [2] | total protein half-life in vivo [3] | total protein half-life in vivo [4] | total protein half-life in vivo [5] | total protein half-life in vivo [6] | total protein half-life in vivo [7] | total protein half-life in vivo [8] | total protein half-life in vivo [9] | total protein half-life in vivo [10] | total protein half-life in vivo [11] | total protein half-life in vivo [12]
1 | MLVSSNVTMQFGSKPLFENISVKFGGGNRYGLIGANGSGKSTFMKILGGDLEPTLGNVSLDPNERIGKLRQDQFAFEEFTVLDTVIMGHKELWEVKQERDRIYALPEMSEEDGYKVADLEVKYGEMDGYSAEARAGELLLGVGIPVEQHYGPMSEVAPGWKLRVLLAQALFADPDILLLDEPTNNLDIDTIRWLEQVLNERDSTMIIISHDRHFLNMVCTHMADLDYGELRVYPGNYDEYMTAATQARERLLADNAKKKAQIAELQSFVSRFSANASKSRQATSRARQIDKIKLEEVKASSRQNPFIRFEQDKKLFRNALEVEGLTKGFDNGPLFKNLNLLLEVGEKLAVLGTNGVGKSTLLKTLVGDLQPDSGTVKWSENARIGYYAQDHEYEFENDLTVFEWMSQWKQEGDDEQAVRSILGRLLFSQDDIKKPAKVLSGGEKGRMLFGKLMMQKPNILIMDEPTNHLDMESIESLNMALELYQGTLIFVSHDREFVSSLATRILEITPERVIDFSGNYEDYLRSKGIE [P0A9U3] | 5.14 ± 0.66 h | 4.36 ± 0.29 h | 4.35 ± 0.22 h | 4.4 ± 0.35 h | 4.27 ± 0.19 h | 2.9 ± 0.28 h | 5.571 ± 0.029 h | 10.1 ± 0.12 h | 4.218 ± 0.03 h | 6.54 ± 0.14 h | 5.08 ± 0.85 h | 8.98 ± 1.4 h
2 | MTRTNLITGFLGSGKTTSILHLLAHKDPNEKWAVLVNEFGEVGIDGALLADSGALLKEIPGGCMCCVNGLPMQVGLNTLLRQGKPDRLLIEPTGLGHPKQILDLLTAPVYEPWIDLRATLCILDPRLLLDEKSASNENFRDQLAAADIIVANKSDRTTPESEQALQRWWQQNGGDRQLIHSEHGKVDGHLLDLPRRNLAELPASAAHSHQHVVKKGLAALSLPEHQRWRRSLNSGQGYQACGWIFDADTVFDTIGILEWARLAPVERVKGVLRIPEGLVRINRQGDDLHIETQNVAPPDSRIELISSSEADWNALQSALLKLRLATTA | 4.59 ± 0.6 h | 4.12 ± 0.58 h | 3.4 ± 0.12 h | 3.83 ± 0.31 h | 3.47 ± 0.083 h | 2.66 ± 0.31 h | 5.66 ± 0.057 h | 9.04 ± 0.88 h | 3.47 ± 0.12 h | 5.62 ± 0.064 h | 5.197 ± 0.035 h | 9.17 ± 0.28 h
3 | MKFRLGGFEAIKSAYMAQVQYSMWVTRKDAWYFANYDPRMKREGLHYVVIERNEKYMASFDEMVPEFIEKMDEALAEIGFVFGEQWR |  | 2.75 h |  |  |  |  |  |  |  |  |  | 
4 | MKRKRLFLLASLLPMFALAGNKWNTTLPGGNMQFQGVIIAETCRIEAGDKQMTVNMGQISSNRFHAVGEDSAPVPFVIHLRECSTVVSERVGVAFHGVADGKNPDVLSVGEGPGIATNIGVALFDDEGNLVPINRPPANWKRLYSGSTSLHFIAKYRATGRRVTGGIANAQAWFSLTYQ |  |  |  |  | 5.7 ± 0.54 h | 2.67 h | 6.06 h |  |  |  |  | 
5 | MKRPALILICLLLQACSATTKELGNSLWDSLFGTPGVQLTDDDIQNMPYASQYMQLNGGPQLFVVLAFAEDGQQKWVTQDQATLVTQHGRLVKTLLGGDNLIEVNNLAADPLIKPAQIVDGASWTRTMGWTEYQQVRYATARSVFKWDGTDTVKVGSDETPVRVLDEEVSTDQARWHNRYWIDSEGQIRQSEQYLGADYFPVKTTLIKAAKQ | 6.57 ± 0.37 h | 6.43 h |  | 6.59 ± 0.19 h | 5.12 ± 0.2 h |  |  |  |  |  |  | 
6 | MRSIARRTAVGAALLLVMPVAVWISGWRWQPGEQSWLLKAAFWVTETVTQPWGVITHLILFGWFLWCLRFRIKAAFVLFAILAAAILVGQGVKSWIKDKVQEPRPFVIWLEKTHHIPVDEFYTLKRAERGNLVKEQLAEEKNIPQYLRSHWQKETGFAFPSGHTMFAASWALLAVGLLWPRRRTLTIAILLVWATGVMGSRLLLGMHWPRDLVVATLISWALVAVATWLAQRICGPLTPPAEENREIAQREQES [P0A924] | 6.18 ± 0.47 h | 7.12 ± 0.17 h | 7.17 h | 5.52 ± 0.8 h | 5.95 ± 0.56 h |  | 6.009 ± 0.045 h | 14.4 ± 1.7 h | 6.36 ± 0.65 h | 11.9 ± 0.65 h | 6.14 ± 0.54 h | 10.7 ± 2 h
7 | MDYFTLFGLPARYQLDTQALSLRFQDLQRQYHPDKFASGSQAEQLAAVQQSATINQAWQTLRHPLMRAEYLLSLHGFDLASEQHTVRDTAFLMEQLELREELDEIEQAKDEARLESFIKRVKKMFDTRHQLMVEQLDNETWDAAADTVRKLRFLDKLRSSAEQLEEKLLDF [P0A6L9] | 4.89 ± 0.7 h | 3.99 ± 0.75 h | 3.26 ± 0.27 h | 4.06 ± 0.18 h | 3.04 ± 0.18 h | 2.9 ± 0.23 h | 4.74 ± 0.099 h | 9.84 ± 1 h | 3.07 ± 0.24 h | 4.57 ± 0.19 h | 5.45 ± 0.78 h | 9.39 ± 0.82 h
